US20120231024A1 (UNIVERSIT TSKLINIKUM FREIBURG, published 2012)

Target: T1, prostate specific membrane antigen (PSMA), native, on the cell surface (human, UniProt Q04609 1-750)
T1 construct: whole, on cells; also called cell-surface PSMA; native PSMA
Test: flow cytometry saturation curve on LNCaP cells; concentration at 50% saturation of PSMA sites
Procedure: The binding properties of the isolated monoclonal antibodies or an antigen binding portion thereof to the native PSMA were compared by treating LNCAP cells with increasing concentrations of the first step anti-PSMA Ab followed by incubation with the second step PE-labeled antibody. From the resulting saturation curves the antibody concentration reaching 50% saturation of PSMA sites can be read.

T1 sequence (Q04609 whole entry): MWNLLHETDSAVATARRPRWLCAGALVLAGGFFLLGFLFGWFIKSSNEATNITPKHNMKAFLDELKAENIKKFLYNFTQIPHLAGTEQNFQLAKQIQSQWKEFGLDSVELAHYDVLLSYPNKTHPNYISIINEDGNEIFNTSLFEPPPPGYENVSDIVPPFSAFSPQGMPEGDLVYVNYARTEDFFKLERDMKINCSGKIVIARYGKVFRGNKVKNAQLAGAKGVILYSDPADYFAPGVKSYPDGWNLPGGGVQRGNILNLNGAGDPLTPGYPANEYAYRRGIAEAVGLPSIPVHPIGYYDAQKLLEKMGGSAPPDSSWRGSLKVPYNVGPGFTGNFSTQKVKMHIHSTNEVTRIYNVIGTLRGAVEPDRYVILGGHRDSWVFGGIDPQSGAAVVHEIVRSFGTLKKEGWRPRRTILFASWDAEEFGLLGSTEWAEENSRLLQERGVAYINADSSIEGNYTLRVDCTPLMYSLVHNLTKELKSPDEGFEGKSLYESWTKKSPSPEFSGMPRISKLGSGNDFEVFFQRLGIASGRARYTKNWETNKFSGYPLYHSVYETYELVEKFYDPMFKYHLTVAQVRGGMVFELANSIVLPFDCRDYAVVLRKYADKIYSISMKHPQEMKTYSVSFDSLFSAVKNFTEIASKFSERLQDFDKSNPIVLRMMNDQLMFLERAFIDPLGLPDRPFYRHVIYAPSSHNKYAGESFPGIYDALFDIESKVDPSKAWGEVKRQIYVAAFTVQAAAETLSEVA

B1: scFv A5 (scFv)
scFv: MADVKLVESGGGLVKPGESLKLSCIASGFTFSDYYMYWVRQTPEKRLEWVAIISDGGYYTYYSDIIKGRFTISRDNAKNNLYLQMSSLKSEDTAMYYCTRGFPLLRHGAMDYWGLGTSVTVSSTKTTPKLEEGEFSEARVDIQMTQSPKFMSTSVGDRVSVTCKASQNVDTNVAWYQQKPGQSPKALIYSASYRYSDVPDRFTGSESGTDFTLTISNVQSEDLAEYFCQQYDSYPYTFGGGTKLEIKRADAAA
notes: also called scFv AS [sic]
B1 showed an EC50 of 60 nM.
